From publication PMC3069404 (The Journal of Biological Chemistry, 2011)

Key:
Cse4/H4 = Cse4/H4 (S. cerevisiae, UniProt P36012 1-229; P02309 1-103); test: reconstitution of the complex from the separate proteins
Cse4 (recombinant) = Cse4 (recombinant) (S. cerevisiae, UniProt P36012 1-229); test: as above
Sequence of Cse4 (recombinant) (P36012 whole entry): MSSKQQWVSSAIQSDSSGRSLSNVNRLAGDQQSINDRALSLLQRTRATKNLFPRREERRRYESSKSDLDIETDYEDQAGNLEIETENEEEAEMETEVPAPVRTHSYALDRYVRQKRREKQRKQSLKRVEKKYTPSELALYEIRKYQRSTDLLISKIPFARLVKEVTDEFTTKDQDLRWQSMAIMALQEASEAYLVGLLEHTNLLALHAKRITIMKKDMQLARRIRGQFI

Sequence of Cse4/H4 (P36012 whole entry, one chain of several): as the sequence (P36012 whole entry) above

binding result (Cse4/H4): binds | binding result (Cse4 (recombinant)): binds
B1: His6-Scm3-Δ25N (recombinant) (domain or fragment, S. cerevisiae, UniProt Q12334 26-223, looked up)
chain: ESGKKSESKIRKHSDCNPVHRVYPPNIEKRKTKKDDGISRPIAERNGHVYIMSKENHIIPKLTDDEVMERHKLADENMRKVWSNIISKYESIEEQGDLVDLKTGEIVEDNGHIKTLTANNSTKDKRTKYTSVLRDIIDISDEEDGDKNDEYTLWANDSEASDSEVDADNDTEEEKDEKLIDADFKKYEAKLSKRILRD
